Data from article PMC9256654, “Mechanistic basis for maintenance of CHG DNA methylation in plants” (Nature Communications, 2022).

Tests used:
[1] = molecular target: Zea mays ZMET2 (residues 130-912), core fragment harboring the CD, BAH and MTase domains (Zea mays) (UniProt Q9AXT8)
[2] = molecular target: A. thaliana CMT3 (residues 42-839) (A. thaliana) (UniProt Q94F88)
[3] = molecular target: Zea mays ZMET2 (residues 130-912), core fragment harboring the CD, BAH and MTase domains (Zea mays) (UniProt Q9AXT8); remark: listed apart in the source

Sequence of Zea mays ZMET2 (residues 130-912), core fragment harboring the CD, BAH and MTase domains (Zea mays) (Q9AXT8 130-912): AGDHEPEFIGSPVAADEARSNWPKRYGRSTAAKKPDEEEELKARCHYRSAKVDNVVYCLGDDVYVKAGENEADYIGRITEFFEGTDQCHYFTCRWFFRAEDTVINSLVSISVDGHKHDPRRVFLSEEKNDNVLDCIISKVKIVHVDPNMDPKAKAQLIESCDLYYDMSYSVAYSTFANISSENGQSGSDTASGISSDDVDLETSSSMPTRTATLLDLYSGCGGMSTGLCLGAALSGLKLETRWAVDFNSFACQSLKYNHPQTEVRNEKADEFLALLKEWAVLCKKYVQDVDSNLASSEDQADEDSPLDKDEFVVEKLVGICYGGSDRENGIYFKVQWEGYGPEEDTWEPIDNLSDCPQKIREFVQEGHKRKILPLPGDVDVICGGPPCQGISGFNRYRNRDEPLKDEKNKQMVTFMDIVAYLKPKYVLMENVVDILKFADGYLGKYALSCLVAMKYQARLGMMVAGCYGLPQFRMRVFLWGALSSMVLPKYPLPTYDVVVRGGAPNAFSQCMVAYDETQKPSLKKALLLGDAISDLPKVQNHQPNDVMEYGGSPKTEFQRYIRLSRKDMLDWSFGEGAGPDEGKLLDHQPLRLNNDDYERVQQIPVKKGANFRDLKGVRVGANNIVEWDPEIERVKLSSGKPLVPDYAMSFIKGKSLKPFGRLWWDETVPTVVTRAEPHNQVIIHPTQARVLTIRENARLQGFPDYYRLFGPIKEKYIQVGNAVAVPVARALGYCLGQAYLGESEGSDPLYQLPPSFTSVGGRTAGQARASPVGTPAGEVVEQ
Sequence of A. thaliana CMT3 (residues 42-839) (A. thaliana) (Q94F88 42-839): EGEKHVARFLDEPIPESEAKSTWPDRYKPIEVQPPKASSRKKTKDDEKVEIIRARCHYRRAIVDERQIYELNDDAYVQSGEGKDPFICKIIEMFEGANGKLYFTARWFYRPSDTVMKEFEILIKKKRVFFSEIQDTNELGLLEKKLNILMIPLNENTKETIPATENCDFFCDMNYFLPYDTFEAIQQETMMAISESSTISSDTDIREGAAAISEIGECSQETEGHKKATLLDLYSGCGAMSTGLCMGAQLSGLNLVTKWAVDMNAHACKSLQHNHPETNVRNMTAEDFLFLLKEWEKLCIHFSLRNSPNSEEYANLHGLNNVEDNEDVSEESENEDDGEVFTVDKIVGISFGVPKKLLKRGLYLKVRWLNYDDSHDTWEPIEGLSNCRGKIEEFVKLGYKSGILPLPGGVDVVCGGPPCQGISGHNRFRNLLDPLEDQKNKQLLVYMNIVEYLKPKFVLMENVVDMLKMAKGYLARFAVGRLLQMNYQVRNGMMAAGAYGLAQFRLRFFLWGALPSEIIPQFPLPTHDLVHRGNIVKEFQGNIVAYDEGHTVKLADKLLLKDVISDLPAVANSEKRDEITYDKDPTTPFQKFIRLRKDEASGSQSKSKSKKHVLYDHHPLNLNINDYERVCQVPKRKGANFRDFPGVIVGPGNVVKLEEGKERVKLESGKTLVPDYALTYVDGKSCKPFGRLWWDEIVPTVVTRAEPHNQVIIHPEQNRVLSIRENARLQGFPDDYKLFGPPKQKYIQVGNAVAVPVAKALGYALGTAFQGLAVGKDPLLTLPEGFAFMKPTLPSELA

Row | in vitro DNA methylation activity of ZMET2 on hmCHG DNA, fold stimulation by the peptide [1] [fold] | in vitro DNA methylation activity of ZMET2 on unmodified CAG DNA, fold stimulation by the peptide [1] [fold] | in vitro DNA methylation activity of CMT3, reduction of the enzymatic stimulation against H3 (1–32)K9me2 [2] [fold] | in vitro DNA methylation activity of ZMET2, reduction of the enzymatic stimulation against H3 (1–32)K9me2 [3] [fold] | Substance
1 | 15 | 6 | – | – | histone H3K9me2 peptide encompassing residues 1-32, followed by a C-terminal tyrosine (from UniProt P68431 2-33)
2 | – | – | > 3 | > 3 | histone H3K9me2K18ac peptide residues 1-32, followed by a C-terminal tyrosine (from UniProt P68431 2-33)
